Assays:
[1] = system: Rat 1% Silver Nitrate-Induced Pain Model; experiment: Intra-articular administration in rat 1% silver nitrate-induced pain model, gait pain score (Example 24); assay type: in vivo; conditions: for average pain score: scale 0-3, 0.1 mL/kg into left hindlimb knee joint
Method: Rats (Crj: SD system (SPF), male, 6 weeks of age) were anesthetized, and a 1% silver nitrate solution was administered into the left hindlimb knee joint cavity at a dose of 50 µL/joint.
The gait state of the rats on the day after the model was created was evaluated by scoring. The rats were divided into groups based on the obtained scores, and under inhalation anesthesia with isoflurane, each test substance was administered at 0.1 mL/kg into the rat left hindlimb knee joint (n = 8).
The gait score was given once a day for 5 days from the day on which test substance was administrated. Note that, as the score on the first day, the score before administration (grouping) was used. Under the blind, the gait state of each group was visually observed using the following pain score table based on the gait state.
The results are shown by the average pain score on Table 16. • 0: Normal • 1: mild claudication with lifting the foot • 2: severe claudication with completely closing the toe • 3: walking on three legs

[2] = rabbit, in vivo
Method: For each test substance, 4 rabbits were used, the whole body was fixed with a towel under no anesthesia, the area around the left knee j oint was wiped with alcohol, and then 0.1 mL/kg of each of the above test substances was administered into the j oint cavity from the outside of the rabbit knee using a Terumo 1 mL syringe equipped with a 26 G injection needle (manufactured by Terumo).
Rabbits were exsanguinated and killed under combined anesthesia by intramuscular administration of ketamine hydrochloride and xylazine. The joint capsule was incised just below the patella to expose the knee joint cavity, and the inside of the joint cavity was washed with 2 mL of physiological saline using a catheter with a Surflo indwelling needle 20 G, and the synovial fluid mixed with physiological saline was collected. The amount of DF in the recovered synovial fluid was measured by the following procedure.
The synovial tissue was separated and collected from the knee joint after collecting the synovial fluid in (2) above. The collected synovial tissue was washed with physiological saline to remove the attached synovial fluid. After removing the patella, the synovial tissue was placed in a tube, and the tissue was cut into small pieces with scissors. […] The same extraction operation as in (2) above was performed, and the amount of free diclofenac was measured using LC-MS/MS.

[3] = Release test of free diclofenac, felbinac, ketoprofen or naproxen in sodium phosphate buffer (Example 23); assay type: physicochemical
Method: (§1) (set temperature of air conditioner). After confirming that no gel was formed, this solution was dispensed. Immediately after the dissolution, the amount of free diclofenac present in each solution was measured by LC-MS/MS as an initial state (day 0 of storage). Also, the other dispensed solutions were incubated at 37° C. for 1, 3, and 7 days, and then the amount of free diclofenac was measured. […] The MS conditions are as follows. • Ionization mode: ESI-negative • Ion source temperature: 300 degrees • Capillary voltage: -4000 V

[4] = Release test of free diclofenac from conjugates in 20 mM sodium phosphate buffer, 37°C (Example 11); assay type: physicochemical; conditions: free diclofenac; for Release Rate in Release Test at pH 5.3: pH 5.3, 37°C; for Release Rate in Release Test at pH 7.0: pH 7.0, 37°C
Method: as §1

[5] = Day 1 (score before administration, grouping)
[6] = pH 5.3, day 1, free drug (diclofenac, felbinac, ketoprofen or naproxen)
[7] = pH 5.3, day 3, free drug (diclofenac, felbinac, ketoprofen or naproxen)
[8] = pH 5.3, day 7, free drug (diclofenac, felbinac, ketoprofen or naproxen)
[9] = pH 7.0, day 1, free drug (diclofenac, felbinac, ketoprofen or naproxen)
[10] = pH 7.0, day 3, free drug (diclofenac, felbinac, ketoprofen or naproxen)
[11] = pH 7.0, day 7, free drug (diclofenac, felbinac, ketoprofen or naproxen)

Molecule	average pain score [1, 5]	average pain score ([1]; Day 2)	average pain score ([1]; Day 3)	average pain score ([1]; Day 4)	average pain score ([1]; Day 5)	DF retained in the synovial tissue continuously until ... after administration [2] [days]	Release Rate in Release Test at pH 5.3 [3, 6] [%]	Release Rate in Release Test at pH 5.3 [3, 7] [%]	Release Rate in Release Test at pH 5.3 [3, 8] [%]	Release Rate in Release Test at pH 7.0 [3, 9] [%]	Release Rate in Release Test at pH 7.0 [3, 10] [%]	Release Rate in Release Test at pH 7.0 [3, 11] [%]	degree of pain relief (recovery from pain) ([1]; compared with diclofenac, alginic acid and diclofenac + alginic acid administration groups)	Release Rate in Release Test at pH 5.3 ([4]; Day 1, 0.1% w/w conjugate) [%]	Release Rate in Release Test at pH 5.3 ([4]; Day 3, 0.1% w/w conjugate) [%]	Release Rate in Release Test at pH 5.3 ([4]; Day 7, 0.1% w/w conjugate) [%]	Release Rate in Release Test at pH 7.0 ([4]; Day 1, 0.1% w/w conjugate) [%]	Release Rate in Release Test at pH 7.0 ([4]; Day 3, 0.1% w/w conjugate) [%]	Release Rate in Release Test at pH 7.0 ([4]; Day 7, 0.1% w/w conjugate) [%]
O=C([O-])Cc1ccccc1Nc1c(Cl)cccc1Cl.[Na+] [DF, Diclofenac Na, reference compound]	2.5	1.9	1.9	1.0	0.8														
Diclofenac-(2-Amino-1-(4-Hydroxypiperidin-1-Yl)Ethan-1-One)-Alginic Acid Derivative [Compound 63a]						≥ 84	0.0	0.2	0.2	0.3	0.8	2.2							
Diclofenac-(2-Amino-N-(2-Hydroxyethyl)Acetamide)-Alginic Acid Derivative [Compound 53b]	2.5	1.0	0.9	0.5	0.4	≥ 84	0.6	0.8	1.0	0.9	2.3	6.4	faster						
Diclofenac-(Serine Ethyl Ester)-Alginic Acid Derivative [Compound 19]														0.0	0.0	0.0	0.0	0.8	12.3
Diclofenac-(Threonine Ethyl Ester)-Alginic Acid Derivative [Compound 24]														0.0	0.0	0.0	0.0	1.4	5.4
Diclofenac-(Tyramine)-Alginic Acid Derivative [Compound 32]														0.0	1.5	7.6	0.0	5.7	15.2
